Experimental data reported in US20130084295A1.
Where a chain is given by its changes, count along the chain named.

Experiments:
[1] = target: IFN-α (subtype not stated; antigen of the ELISA, BIAcore and Kinexa assays of Example 2) (human); assay: ELISA, IFN-α coated at 0.1 µg/ml, F(ab) at 10 µg/ml; SD 0.06, N 3
[2] = target: IFN-α (subtype not stated; antigen of the ELISA, BIAcore and Kinexa assays of Example 2) (human); assay: Kinexa
[3] = target: IFN-α (subtype not stated; antigen of the ELISA, BIAcore and Kinexa assays of Example 2) (human); assay: ELISA, IFN-α coated at 0.1 µg/ml, F(ab) at 10 µg/ml; SD 0.05, N 3
[4] = target: IFN-α (subtype not stated; antigen of the ELISA, BIAcore and Kinexa assays of Example 2) (human); assay: ELISA, IFN-α coated at 0.1 µg/ml, F(ab) at 10 µg/ml; SD 0.32, N 3
[5] = target: IFN-α (subtype not stated; antigen of the ELISA, BIAcore and Kinexa assays of Example 2) (human); assay: ELISA, IFN-α coated at 0.1 µg/ml, F(ab) at 10 µg/ml; SD 0.00, N 3
[6] = target: IFN-α (subtype not stated; antigen of the ELISA, BIAcore and Kinexa assays of Example 2) (human); assay: Kinexa; remark: listed apart in the source
[7] = target: leukocyte interferon (Sigma Product No. 1-2396): heterogeneous collection of IFN-α subtypes produced by activated leukocytes; assay: cell-based or functional assay

B1: humanized 9F3 F(ab) version F-11 (Fab, V domains shown)
VH: EVQLVESGGGLVQPGGSLRLSCATSGYTFTEYIIHWVRQAPGKGLEWVASINPDYDITNYNQRFKGRFTISLDKSSNTAYLQMNSLRAEDTAVYYCASWISDFFDYWGQGTLVTVSS
VL: DIQMTQSPSSLSASVGDRVTITCRASQSVSTSSYSYMHWYQQKPGKAPKLLIYYASNLESGVPSRFSGSGSGTDFTLTISSLQPEDFATYYCQHSWGIPRTFGQGTKVEIK
OD450 nm at 10 µg/ml (mean) [1]: 0.642 OD450 nm

B2: humanized recombinant anti-IFN-α monoclonal antibody V13IgG2 (antibody, V domains shown)
VH: B1 VH with S76K, N77R
VL: DIQMTQSPSSLSASVGDRVTITCRASQSVSTSSYSYMHWYQQKPGKAPKVLISYASNLESGVPSRFSGSGSGTDFTLTISSLQPEDFATYYCQHSWGIPRTFGQGTKVEIKR
fold reduction of affinity against the parental murine 9F3 antibody [2]: 2 fold

B3: humanized 9F3 F(ab) version F-12 (Fab, V domains shown)
VH: B1 VH with S76K, N77R
VL: B1 VL
OD450 nm at 10 µg/ml (mean) [3]: 0.912 OD450 nm

B4: humanized 9F3 F(ab) version F-15 (Fab, V domains shown)
VH: B1 VH with K74N, S76K, N77R
VL: B1 VL with L50V, Y53S
OD450 nm at 10 µg/ml (mean) [4]: 0.868 OD450 nm

B5: humanized 9F3 F(ab) version F-1 (Fab, V domains shown)
VH: B1 VH with T24A, L72R, K74N, S76K, A79L, S98R
VL: B1 VL
OD450 nm at 10 µg/ml (mean) [5]: 0.06 OD450 nm

B6: humanized 9F3 F(ab) version F-14 (Fab, V domains shown)
VH: B1 VH with L72R, S76K, N77R
VL: B1 VL with L50V, Y53S
OD450 nm at 10 µg/ml (mean) [1]: 0.472 OD450 nm

B7: murine anti-human IFN-α monoclonal antibody 9F3 (antibody, IgG2, V domains shown)
VL: DIVLTQSPASLAVSLGQRATISCRASQSVSTSSYSYMHWYQQKPGQPPKVLISYASNLESGVPARFSGSGSGTDFTLNIHPVEEGDTATYFCQHSWGIPRTFGAGTKLELRRAV
VH: EVQLQQSGPELVKPGASVKISCKTSGYTFTEYIIHWVKQGHGRSLEWIGSINPDYDITNYNQRFKGKATLTLDKSSRTAYLELRSLTSEDSAVYYCASWISDFFDYWGQGTTLMVSAAS
Kd [6]: 1.5 pM | neutralization of anti-viral activity (EMC virus, A549 cells; 10 µg/ml mAb) [7]: > 95%
